Publication PMC8682993 (Science Advances, 2021)
Numbering of substitutions follows the chain as printed. Numbers in names are those of the source. Where “and” joins values, the source holds several entries; their conditions need not be identical. Identical values can stand only once. Values belong to the binder of their own block, whether it stands above or below them.

Key:
[1] = molecular target: T1, full-length yeast Hsp90 (Hsp82) (yeast, UniProt P02829 1-709); experiment: AUC
[2] = molecular target: T1, full-length yeast Hsp90 (Hsp82); experiment: fluorescence polarisation

T1 sequence (P02829 whole entry): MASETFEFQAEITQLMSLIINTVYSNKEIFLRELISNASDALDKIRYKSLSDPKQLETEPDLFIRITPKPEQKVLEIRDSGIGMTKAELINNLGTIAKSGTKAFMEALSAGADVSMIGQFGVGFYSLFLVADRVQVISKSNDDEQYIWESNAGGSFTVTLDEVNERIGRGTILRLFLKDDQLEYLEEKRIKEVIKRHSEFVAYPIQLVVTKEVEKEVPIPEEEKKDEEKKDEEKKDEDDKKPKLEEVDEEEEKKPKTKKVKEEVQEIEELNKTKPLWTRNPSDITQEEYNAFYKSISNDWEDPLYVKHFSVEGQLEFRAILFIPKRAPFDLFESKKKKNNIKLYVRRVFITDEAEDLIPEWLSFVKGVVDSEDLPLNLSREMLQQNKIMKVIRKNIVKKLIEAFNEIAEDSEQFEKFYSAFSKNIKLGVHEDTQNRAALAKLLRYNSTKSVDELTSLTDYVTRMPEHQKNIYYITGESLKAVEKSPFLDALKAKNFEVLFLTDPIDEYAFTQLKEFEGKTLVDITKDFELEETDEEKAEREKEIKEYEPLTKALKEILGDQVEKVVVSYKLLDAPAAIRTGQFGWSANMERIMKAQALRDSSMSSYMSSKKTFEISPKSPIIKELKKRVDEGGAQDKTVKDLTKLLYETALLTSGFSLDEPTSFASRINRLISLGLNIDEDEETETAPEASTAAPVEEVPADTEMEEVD

binding result [1]: binds
B1: MR-LBD (C805S/A841C) (domain or fragment)
chain: APTKEPSVNSALVPQLTSITHALTPSPAMILENIEPETVYAGYDNSKPDTAESLLSTLNRLAAKQMIQVVKWAKVLPGFKNLPLEDQITLIQYSWMSLSSFALSWRSYKHTNSQLLYFAPDLVFNEEKMHQSCMYELCQGMRQISLQFVRLQLTFEEYSIMKVLLLLSTVPKDGLKSQAAFEEMRTNYIKELRKMVTKCPNSSGQSWQRFYQLTKLLDSMHDLVSDLLEFCFYTFRESQALKVEFPAMLVEIITDQLPKVESGNAKPLYFHRK

B2: p53-DBD (C124S/C229S/C277S) (domain or fragment)
chain: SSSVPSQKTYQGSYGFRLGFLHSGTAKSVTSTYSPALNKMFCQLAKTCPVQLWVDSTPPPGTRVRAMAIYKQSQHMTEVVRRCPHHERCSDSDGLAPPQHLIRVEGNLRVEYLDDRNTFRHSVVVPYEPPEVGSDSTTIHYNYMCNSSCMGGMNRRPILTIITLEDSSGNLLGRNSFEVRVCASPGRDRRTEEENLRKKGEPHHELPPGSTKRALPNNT
binding result [1]: binds

Kd [2]: 5.7 µM and 5.3 µM and 2.2 µM and 1.9 µM
B3: rat MR-LBD (amino acids 709 to 981; C805S) (domain or fragment)
chain: B1 chain with C133A
modifications: ATTO 488 maleimide, randomly on cysteine residues (anisotropy and AUC)
